From PMC4822050, “Hemi-methylated DNA opens a closed conformation of UHRF1 to facilitate its histone recognition” (Nature Communications, 2016)
Where a chain is given by its changes, count along the chain named. Numbers in names are those of the source.

T1: Spacer (residues 587–674) of UHRF1 (Homo sapiens, UniProt Q96T88)
T1 construct: Spacer (residues 587–674); GST (N, cleaved yes); made in house; host or cells: E. coli BL21 (DE3)
T1 sequence (Q96T88 587-674): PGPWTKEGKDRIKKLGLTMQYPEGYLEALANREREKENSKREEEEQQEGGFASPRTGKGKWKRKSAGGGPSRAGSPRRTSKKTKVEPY

T2: TTD (residues 134–285) of UHRF1 (Homo sapiens, UniProt Q96T88)
T2 construct: TTD (residues 134–285); GST (N, cleaved yes); made in house; host or cells: E. coli BL21 (DE3)
T2 sequence (Q96T88 134-285): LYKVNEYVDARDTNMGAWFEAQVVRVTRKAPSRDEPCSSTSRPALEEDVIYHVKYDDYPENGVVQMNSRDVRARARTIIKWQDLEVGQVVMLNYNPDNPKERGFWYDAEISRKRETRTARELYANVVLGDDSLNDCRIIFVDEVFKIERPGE

B1: TTD: tandem Tudor domain of human UHRF1 (residues 134–285) (protein, UniProt Q96T88 134-285, looked up, fragment)
chain: T2 sequence (Q96T88 134-285)
modifications: tandem Tudor domain
B2: TTD-PHDRR295,296DD: mutation R295D/R296D (within the Linker) of TTD–PHD (protein)
chain: LYKVNEYVDARDTNMGAWFEAQVVRVTRKAPSRDEPCSSTSRPALEEDVIYHVKYDDYPENGVVQMNSRDVRARARTIIKWQDLEVGQVVMLNYNPDNPKERGFWYDAEISRKRETRTARELYANVVLGDDSLNDCRIIFVDEVFKIERPGEGSPMVDNPMDDKSGPSCKHCKDDVNRLCRVCACHLCGGRQDPDKQLMCDECDMAFHIYCLDPPLSSVPSEDEWYCPECRND
modifications: left off: GST, end not stated, cleaved
notes: mutation R295D/R296D (within the Linker) of TTD–PHD
B3: TTDD142A,E153A: mutation D142A/E153A of the TTD (protein)
chain: T2 sequence (Q96T88 134-285) with D9A, E20A
modifications: left off: GST, end not stated, cleaved
notes: mutation D142A/E153A of the TTD
B4: SpacerK648D: mutation K648D of the Spacer (protein)
chain: T1 sequence (Q96T88 587-674) with K62D
modifications: left off: GST, end not stated, cleaved
notes: mutation K648D of the Spacer
B5: SpacerS651D: mutation S651D of the Spacer (protein)
chain: T1 sequence (Q96T88 587-674) with S65D
modifications: left off: GST, end not stated, cleaved
notes: mutation S651D of the Spacer
B6: SpacerS639D: mutation S639D of the Spacer, negative control (protein)
chain: T1 sequence (Q96T88 587-674) with S53D
modifications: left off: GST, end not stated, cleaved
notes: mutation S639D of the Spacer, negative control
B7: SpacerS666D: mutation S666D of the Spacer, negative control (protein)
chain: T1 sequence (Q96T88 587-674) with S80D
modifications: left off: GST, end not stated, cleaved
notes: mutation S666D of the Spacer, negative control
B8: Spacer ∆642-651: internal deletion of the Spacer, residues 642–651 (protein)
chain: PGPWTKEGKDRIKKLGLTMQYPEGYLEALANREREKENSKREEEEQQEGGFASPRAGGGPSRAGSPRRTSKKTKVEPY
modifications: left off: GST, end not stated, cleaved
B9: Spacer∆650-654: internal deletion of the Spacer, residues 650–654 (protein)
chain: PGPWTKEGKDRIKKLGLTMQYPEGYLEALANREREKENSKREEEEQQEGGFASPRTGKGKWKRGPSRAGSPRRTSKKTKVEPY
modifications: left off: GST, end not stated, cleaved
B10: Spacer∆655-659: internal deletion of the Spacer, residues 655–659 (protein)
chain: B9 chain with G64K, P65S, S66A, R67G, A68G
modifications: left off: GST, end not stated, cleaved
B11: Spacer∆660-664: internal deletion of the Spacer, residues 660–664 (protein)
chain: B9 chain with G64K, P65S, S66A, R67G, A68G, S70P, P71S, R73A
modifications: left off: GST, end not stated, cleaved
B12: Spacer∆665-669: internal deletion of the Spacer, residues 665–669 (protein)
chain: PGPWTKEGKDRIKKLGLTMQYPEGYLEALANREREKENSKREEEEQQEGGFASPRTGKGKWKRKSAGGGPSRAGSPRRKVEPY
modifications: left off: GST, end not stated, cleaved
B13: Spacer∆670-674: deletion of the Spacer, residues 670–674 (protein)
chain: B12 chain with K79T, V80S, E81K, P82K, Y83T
modifications: left off: GST, end not stated, cleaved
B14: SpacerR649A: mutation R649A of the Spacer (protein)
chain: T1 sequence (Q96T88 587-674) with R63A
modifications: left off: GST, end not stated, cleaved
notes: mutation R649A of the Spacer

biological target: T1, Spacer (residues 587–674) of UHRF1; assay: ITC, interaction of UHRF1 domains with the Spacer; assay type: binding; conditions: ITC stoichiometry, Spacer in syringe
Description: (§1) For competition ITC experiments: the indicated proteins were pre-incubated with competitive peptide, protein or hm-DNA (at 1:2 molar ratio if not specified) for 10 min followed by ITC measurements as described above. Proteins, DNA and peptides were prepared within ITC buffer containing 10 mM HEPES, pH 8.0, 100 mM NaCl. The data were fitted by software Origin 7.0. All ITC results were summarized in Supplementary Table 2 and raw data were shown in Supplementary Fig. 9.

Row | Molecule | N
1 | B1 | 0.991±0.0134
2 | B2 | 0.944±0.0158

same assay, conditions: ITC, 18 °C; Spacer in syringe, named protein in cell; 10 mM HEPES pH 8.0, 100 mM NaCl

Row | Molecule | Kd [nM]
3 | B1 | 1480
4 | B2 | 2690

same assay, conditions: ITC, Fig. 3e; wild-type or mutant TTD in syringe, Spacer in cell

Row | Molecule | Kd [nM] | KD
5 | B1 | 1590 | 
6 | B3 |  | abolished

same assay, conditions: ITC, Spacer in syringe

Row | Molecule | ΔH [cal/mol] | ΔS [cal/mol/deg]
7 | B1 | -1.614E4±297.4 | -28.7
8 | B2 | -1.399E4±290.7 | -22.5

same assay, conditions: ITC, molar ratio of TTD-PHD or TTD: H3K9me3=1:2

Row | Molecule | interaction between the Spacer and the named protein in the presence of H3K9me3
9 | B1 | No detectable interaction

biological target: T2, TTD (residues 134–285) of UHRF1; assay: ITC, TTD titrated into Spacer variants and other UHRF1 fragments; assay type: binding; conditions: ITC stoichiometry, TTD in syringe
Description: as §1

Row | Molecule | N
10 | B4 | 0.659±0.0209
11 | B5 | 0.998±0.0189
12 | B6 | 1.03±0.0102
13 | B7 | 1.08±0.0104
14 | B8 | 0.891±0.0733
15 | B9 | 0.967±0.0122
16 | B10 | 0.988±0.0147
17 | B11 | 1.01±0.00976
18 | B12 | 1.06±0.00978
19 | B13 | 1.1±0.0102
20 | B14 | 1.06±0.0256

same assay, conditions: ITC, TTD in syringe

Row | Molecule | ΔH | ΔS [cal/mol/deg]
21 | B4 | -8.45 ± 0.3659 kcal/mol | -5.07
22 | B5 |  | -19.3
23 | B6 | -1.125E4±153.8 cal/mol | -11.4
24 | B7 | -1.219E4±159.8 cal/mol | -14.9
25 | B8 | -3.833 ± 0.4259 kcal/mol | 9.58
26 | B9 | -6.475 ± 0.1071 kcal/mol | 2.57
27 | B10 | -7.634 ± 0.1561 kcal/mol | -0.906
28 | B11 |  | -10.2
29 | B12 |  | -12.9
30 | B13 |  | -9.46
31 | B14 | -8.277 ± 0.352 kcal/mol | -7.04
